Source: article PMC8807537 (Acta Naturae, 2021)

Target: T1, recombinant protein GP Zaire ebolavirus (H. sapiens-wt/GIN/2014/Kissidougou-C15 strain) (Zaire ebolavirus, …, UniProt X5HMX4, strain)
T1 construct: also called EBOV GP; recombinant EBOV GP
Assay: ELISA; indirect ELISA; […] (1 ug/ml) […]
Conditions: both partners purified

B1: control antibody MAb114 (antibody, V domains shown)
VH: EVQLVESGGGLIQPGGSLRLSCAASGFALRMYDMHWVRQTIDKRLEWVSAVGPSGDTYYADSVKGRFAVSRENAKNSLSLQMNSLTAGDTAIYYCVRSDRGVAGLFDSWGQGILVTVSS
VL: DIQMTQSPSSLSASVGDRITITCRASQAFDNYVAWYQQRPGKVPKLLISAASALHAGVPSRFSGSGSGTHFTLTISSLQPEDVATYYCQNYNSAPLTFGGGTKVEIK
B1: binds.
